This note sets out measurements from patent US20210032313A1 (Daiichi Sankyo, published 2021).

One assay concerns the target T1, KLK4 (human, UniProt Q9Y5K2).
T1 construct: commercial enzyme (R&D Systems, 1719-SE); 1 µg/mL in the assay; substrate Boc-Val-Pro-Arg-AMC 100 µM; also called Human KLK4; hKLK4
In words: fluorogenic peptide substrate cleavage, 1 µM inhibitor. The method, then:
FIG. 3F includes graphs to evaluate the cross-reactivity of each inhibitory peptide with proteases, using the degradation of a peptide substrate as an index. For evaluating the Human KLK1 inhibitory activity, hKLK1 (R&D Systems, Inc., 2337-SE) with a final concentration of 0.1 μg/mL and a substrate peptide Pro-Phe-Arg-MCA (PEPTIDE […], INC., 3096-v) with a final concentration of 100 μM were used. For evaluating the Human KLK2 inhibitory activity, hKLK2 (R&D Systems, Inc., 4104-SE) with a final concentration of 2 μg/mL and a substrate peptide Pro-Phe-Arg-MCA (PEPTIDE […], INC., 3096-v) with a final concentration of 100 μM were used. For evaluating the Human KLK4 inhibitory activity, hKLK4 (R&D Systems, Inc., 1719-SE) with a final concentration of 1 μg/mL and a substrate peptide Boc-Val-Pro-Arg-AMC (R&D Systems, Inc., ES011) with a final concentration of 100 μM were used.
The specificities for other proteases were evaluated using the degradation of a substrate peptide as an index. As in the method described in (3-1), 25 μL each of a protease and a sample diluted with an assay buffer were mixed (to a final concentration of sample of 1 μM), followed by a reaction at 37° C. for 20 minutes. Thereafter, 50 μL of a substrate diluted with an assay buffer was added thereto, and the fluorescence signal was measured using Enspire (PerkinElmer). An assay buffer (50 mM Tris, 150 mM NaCl, pH 8.0) was used for the evaluation of the protease activity, and a PROTEOSAVE® SS96F black plate (Sumitomo Bakelite Co., Ltd.) was used for the reaction and the measurement. The combinations of the protease and the substrate used for the evaluation of the specificity were as follows.

The target of another assay is T2, human KLK5 (human, UniProt Q9Y337 67-293).
T2 construct: also called hKLK5; active KLK5; not shown: C-terminal tag with His tag, encoded by primers 3/4
T2 sequence: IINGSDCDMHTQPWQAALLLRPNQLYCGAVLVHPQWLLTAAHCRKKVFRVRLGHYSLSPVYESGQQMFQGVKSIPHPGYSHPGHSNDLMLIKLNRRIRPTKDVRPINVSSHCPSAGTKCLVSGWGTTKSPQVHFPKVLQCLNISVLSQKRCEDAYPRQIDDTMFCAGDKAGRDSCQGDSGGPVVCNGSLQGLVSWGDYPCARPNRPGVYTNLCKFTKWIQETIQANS
In words: SPR, BIAcore T200; biotinylated KLK5 captured on chip, peptide as analyte; single cycle kinetics, 1:1 model. The method, then: In order to measure the binding affinity of the KLK5 inhibitory peptides, surface plasmon resonance analysis was conducted using BIAcore T 200 (GE healthcare). A complementary strand of DNA of a streptavidin conjugate was captured by hybridization on Sensor Chip CAP (GE healthcare) on which single-stranded DNA immobilized. Next, KLK5 biotinylated using EZ-Link NHS-PEG4-Biotin (Thermo Fisher Scientific) was captured at a flow rate of 10 μL/min to immobilize about 10 RU. Thereafter, the KLK5 inhibitory peptide, serially diluted 2-fold with HBS-EP (0.625 to 10 nM), was added thereto as an analyte at a flow rate of 30 μL/min. In the BIAcore T 200 Evaluation software (version 2.0), kon and koff were calculated by analysis using Single cycle kinetics in a simple one-to-one Langmuir binding model. The dissociation constant KD was calculated as a ratio of koff/kₒₙ. Further, multiple KLK5 inhibitory peptides were measured by regenerating Sensor Chip CAP using a Regeneration buffer attached to a Biotin CAPture Kit (GE healthcare) and repeatedly capturing biotinylated KLK5.
(Surface plasmon resonance follows binding to a sensor surface in real time, without labels.)

T1 sequence (Q9Y5K2 31-254 limits assumed): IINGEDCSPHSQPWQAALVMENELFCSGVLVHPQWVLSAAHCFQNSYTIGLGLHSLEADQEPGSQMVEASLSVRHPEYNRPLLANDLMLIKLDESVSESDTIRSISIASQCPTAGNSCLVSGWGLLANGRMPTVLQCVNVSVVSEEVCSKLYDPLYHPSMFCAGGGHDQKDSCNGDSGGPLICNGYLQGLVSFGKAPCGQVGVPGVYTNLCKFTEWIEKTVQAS

B1: KLK5/KLK14 inhibitory peptide K51069 (peptide)
chain: GPQFGLFSKYRTPNCSQVVETYCNRDYDPVCGSDMSTYANECTLCMKIREGGHNIKIIRNGPCGG
notes: SPINK2 mutant peptide made in E. coli
One may read the Kd as the equilibrium constant for the complex coming apart. Low readings indicate tighter binding, high ones weaker binding. In general, koff refers to the rate constant with which the complex falls apart. Read a high koff as fast dissociation. Broadly, the kon is the second-order rate constant of association. A higher kon goes with fast association. With B1, in the assay with KLK4, the binding result is “binds”. In the assay with human KLK5, the Kd is no more than 1 pM, the koff is no more than 1e-06 s⁻¹ and the kon was 940000 M⁻¹ s⁻¹.

B2: KLK5/KLK14 inhibitory peptide K50015 (peptide)
chain: GPQFGLFSKYRTPNCYDTTTHYCSREYDPVCGSDMSTYANECTLCMKIREGGHNIKIIRNGPCGG
notes: as for B1
In the case of B2, the binding result with KLK4 is recorded as “binds”. In addition, in the assay with human KLK5, the Kd is no more than 1.1 pM, the koff is no more than 1e-06 s⁻¹ and the on-rate constant (kon) worked out at 940000 M⁻¹ s⁻¹.
